The record followed here is US20260207732A1.

The target of test [1] is control (H1 Bri18 wild type HA ectodomain-foldon) (Influenza A virus A/Brisbane/02/2018 (H1N1)). Description: BLI (Octet) after 7D37C and trypsin; HA on Ni-NTA tips. For orientation: BLI is a label-free optical method that tracks binding on a fibre tip over time.
Test [2] has the same target. The test is described as follows: BLI (Octet), HA-foldon-His on Ni-NTA tips, IgG in solution.

Regarding CR9114 monoclonal antibody (IgG), the Octet response (nm) was found to be 0.693 nm in test [1] and 0.826 nm in test [2].
Turning to FI6v3 monoclonal antibody (IgG), the Octet response (nm) is 0.697 nm in test [1] and 0.856 nm in test [2].
